Results: patent US8673848 (Novartis, dated 2014)
*1 amine or outer side, *2 acyl side, *3 side chain or, on linkers, in order; H or OH if unused. Bridges are numbered along the chain shown (N, C = ends). [ ]: non-standard residue; d: D form. The star is where a group is joined. ‑S‑CH2‑C(:Z)‑CH2‑S‑ = thioether linker between two Cys sulfurs, S-CH2-C(=Z)-CH2-S, where Z is an oxime formed with (S)-1-(aminooxy)-19-carboxy-2,7,16,21-tetraoxo-9,12-dioxa-3,6,15,20-tetraazaoctatriacontan-38-oic acid (a fatty acid derivative, O=C(O)CCCCCCCCCCCCCCCCC(=O)N[C@@H](CCC(=O)NCCOCCOCC(=O)NCCNC(=O)CON=C(C[*:1])C[*:2])C(=O)O; Myristoyl = CCCCCCCCCCCCCC(=O)*; pGlu = O=C1CC[C@@H](C(=O)O)N1; Nle = CCCC[C@H](N)C(=O)O; AEEA = NCCOCCOCC(=O)O; Aib = CC(C)(N)C(=O)O

B1: Example 6: pE-R-P-R-L-K-F-K-G-P-Nle-f (peptide)
peptide: [pGlu]RPRLKFKGP[Nle][dF]
modifications: lactam 6-C
SMILES: CCCC[C@@H]1NC(=O)[C@@H]2CCCN2C(=O)CNC(=O)[C@H](CCCCN)NC(=O)[C@H](Cc2ccccc2)NC(=O)[C@@H](NC(=O)[C@H](CC(C)C)NC(=O)[C@H](CCCNC(=N)N)NC(=O)[C@@H]2CCCN2C(=O)[C@H](CCCNC(=N)N)NC(=O)[C@@H]2CCC(=O)N2)CCCCNC(=O)[C@@H](Cc2ccccc2)NC1=O
B2: Example 60: Myristoyl-O2Oc-O2Oc-O2Oc-O2Oc-Q-R-P-R-L-C-H-K-G-P-Nle-C-f-OH (peptide)
peptide: Myristoyl-[AEEA][AEEA][AEEA][AEEA]QRPRLCHKGP[Nle]C[dF]-OH
modifications: disulfide 10-16
SMILES: CCCCCCCCCCCCCC(=O)NCCOCCOCC(=O)NCCOCCOCC(=O)NCCOCCOCC(=O)NCCOCCOCC(=O)N[C@@H](CCC(N)=O)C(=O)N[C@@H](CCCNC(=N)N)C(=O)N1CCC[C@H]1C(=O)N[C@@H](CCCNC(=N)N)C(=O)N[C@@H](CC(C)C)C(=O)N[C@H]1CSSC[C@@H](C(=O)N[C@H](Cc2ccccc2)C(=O)O)NC(=O)[C@H](CCCC)NC(=O)[C@@H]2CCCN2C(=O)CNC(=O)[C@H](CCCCN)NC(=O)[C@H](Cc2c[nH]cn2)NC1=O
B3: Example 61: pE-R-P-R-L-C-H-K(Myristoyl)-G-P-Nle-C-F-OH (peptide)
peptide: [pGlu]RPRLCHK(Myristoyl)GP[Nle]CF-OH
modifications: disulfide 6-12
SMILES: CCCCCCCCCCCCCC(=O)NCCCC[C@@H]1NC(=O)[C@H](Cc2c[nH]cn2)NC(=O)[C@@H](NC(=O)[C@H](CC(C)C)NC(=O)[C@H](CCCNC(=N)N)NC(=O)[C@@H]2CCCN2C(=O)[C@H](CCCNC(=N)N)NC(=O)[C@@H]2CCC(=O)N2)CSSC[C@@H](C(=O)N[C@@H](Cc2ccccc2)C(=O)O)NC(=O)[C@H](CCCC)NC(=O)[C@@H]2CCCN2C(=O)CNC1=O
B4: Example 62: pE-R-P-R-L-C-H-K-G-P-Nle-C-F-NH2 (peptide)
peptide: [pGlu]RPRLCHKGP[Nle]CF-NH2
modifications: disulfide 6-12
SMILES: CCCC[C@@H]1NC(=O)[C@@H]2CCCN2C(=O)CNC(=O)[C@H](CCCCN)NC(=O)[C@H](Cc2c[nH]cn2)NC(=O)[C@@H](NC(=O)[C@H](CC(C)C)NC(=O)[C@H](CCCNC(=N)N)NC(=O)[C@@H]2CCCN2C(=O)[C@H](CCCNC(=N)N)NC(=O)[C@@H]2CCC(=O)N2)CSSC[C@@H](C(=O)N[C@@H](Cc2ccccc2)C(N)=O)NC1=O
B5: Example 63: pE-R-P-R-L-C-H-K-G-P-Nle-C-NH2 (peptide)
peptide: [pGlu]RPRLCHKGP[Nle]C-NH2
modifications: disulfide 6-12
SMILES: CCCC[C@@H]1NC(=O)[C@@H]2CCCN2C(=O)CNC(=O)[C@H](CCCCN)NC(=O)[C@H](Cc2c[nH]cn2)NC(=O)[C@@H](NC(=O)[C@H](CC(C)C)NC(=O)[C@H](CCCNC(=N)N)NC(=O)[C@@H]2CCCN2C(=O)[C@H](CCCNC(=N)N)NC(=O)[C@@H]2CCC(=O)N2)CSSC[C@@H](C(N)=O)NC1=O
B6: Example 65: pE-R-P-R-L-C-H-K-G-P-Nle-C-F-OH with a monosulfide linkage between the 2 cysteines at position 6 and 12 (peptide)
peptide: [pGlu]RPRLCHKGP[Nle]CF-OH
modifications: bridge 6-12; not fully specified (bridges); printed as pE-R-P-R-L-C-H-K-G-P-Nle-C-F-OH
B7: Example 66: pE-R-P-R-L-C-H-K-G-P-Nle-C-F-OH with a -S-CH2-C(=Z)-CH2-S- linkage between the 2 cysteines at position 6 and 12 (peptide)
peptide: [pGlu]RPRLCHKGP[Nle]CF-OH
modifications: linker 6-12 via ‑S‑CH2‑C(:Z)‑CH2‑S‑; also: Z = oxime with (S)-1-(aminooxy)-19-carboxy-2,7,16,21-tetraoxo-9,12-dioxa-3,6,15,20-tetraazaoctatriacontan-38-oic acid on the linker ketone
B8: Example 9: pE-R-P-R-L-C-Aib-K-G-P-Nle-C-F-OH (peptide)
peptide: [pGlu]RPRLC[Aib]KGP[Nle]CF-OH
modifications: disulfide 6-12
SMILES: CCCC[C@@H]1NC(=O)[C@@H]2CCCN2C(=O)CNC(=O)[C@H](CCCCN)NC(=O)C(C)(C)NC(=O)[C@@H](NC(=O)[C@H](CC(C)C)NC(=O)[C@H](CCCNC(=N)N)NC(=O)[C@@H]2CCCN2C(=O)[C@H](CCCNC(=N)N)NC(=O)[C@@H]2CCC(=O)N2)CSSC[C@@H](C(=O)N[C@@H](Cc2ccccc2)C(=O)O)NC1=O

target: T1, human APJ receptor (hAPJ) (human, UniProt P35414 1-380); assay: cell-based or functional assay
T1 sequence (looked up): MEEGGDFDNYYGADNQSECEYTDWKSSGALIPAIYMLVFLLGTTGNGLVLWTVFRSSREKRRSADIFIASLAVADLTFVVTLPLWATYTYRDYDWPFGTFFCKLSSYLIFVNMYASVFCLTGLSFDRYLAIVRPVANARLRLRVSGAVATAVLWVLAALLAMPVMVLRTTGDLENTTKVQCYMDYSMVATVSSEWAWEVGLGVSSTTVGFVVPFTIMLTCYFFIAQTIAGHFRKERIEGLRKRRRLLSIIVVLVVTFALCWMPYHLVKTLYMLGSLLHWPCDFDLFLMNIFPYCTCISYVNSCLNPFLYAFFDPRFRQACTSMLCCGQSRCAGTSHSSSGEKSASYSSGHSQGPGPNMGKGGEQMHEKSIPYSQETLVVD

Question: Which “hAPJ Ca2+ Flux EC50” value does the source give for B1 here?
Answer: 22 nM

Question: For B2, which “hAPJ Ca2+ Flux EC50” value is on record?
Answer: 8.15 nM

Question: Which “hAPJ Ca2+ Flux EC50” value does the source give for B3 here?
Answer: 89.2 nM

Question: Which “hAPJ Ca2+ Flux EC50” value does the source give for B4 here?
Answer: 3.32 nM

Question: For B5, which “hAPJ Ca2+ Flux EC50” value is on record?
Answer: 3.18 nM

Question: [pGlu]RPRLCHKGP[Nle]CF-OH (linker 6-12 via ‑S‑CH2‑C(O)CH2‑S‑) was tested. Which “hAPJ Ca2+ Flux EC50” value did it give?
Answer: 6.3 nM

Question: With B6 as the binder, how does the “hAPJ Ca2+ Flux EC50” value read?
Answer: 1.1 nM

Question: How did the “hAPJ Ca2+ Flux EC50” value turn out when B7 was run?
Answer: 589 nM

Question: Which “hAPJ Ca2+ Flux EC50” value does the source give for cyclo(QRPRLCFKGP[Nle]CFGG) (disulfide 6-12) [Example 7: Q-R-P-R-L-C-F-K-G-P-Nle-C-F-G-G] here?
Answer: 90.8 nM

Question: [pGlu]RPRLCHKGP[Nle]CF-OH (disulfide 6-12) [Example 8: pE-R-P-R-L-C-H-K-G-P-Nle-C-F-OH] was tested. Which “hAPJ Ca2+ Flux EC50” value did it give?
Answer: 1.04 nM

Question: B8 was tested. Which “hAPJ Ca2+ Flux EC50” value did it give?
Answer: 2.16 nM
